According to paper PMC10382551, “Affinity-matured homotypic interactions induce spectrum of PfCSP structures that influence protection from malaria infection” (Nature Communications, 2023):
Ends that are not written are not given here.

T1: NPNA4 peptide (Plasmodium falciparum (isolate 3D7)., not fully specified)
T1 construct: source: synthetic peptide (InnoPep Inc)
T1 chain: NPNANPNANPNANPNA

T2: NPNA8 peptide (Plasmodium falciparum (isolate 3D7)., not fully specified)
T2 construct: source: synthetic peptide (InnoPep Inc)
T2 chain: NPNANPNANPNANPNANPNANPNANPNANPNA

T3: NPNA4 peptide (Plasmodium falciparum (isolate 3D7)., not fully specified)
T3 construct: source: synthetic peptide (InnoPep Inc, purity >=97%)
T3 chain: NPNANPNANPNANPNA

T4: NPNA8 peptide (Plasmodium falciparum (isolate 3D7)., not fully specified)
T4 construct: source: synthetic peptide (InnoPep Inc, purity >=97%)
T4 chain: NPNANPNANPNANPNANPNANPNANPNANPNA

B1: 337 Fab (Fab, V domains shown)
VH: QVQLVESGGGVVQPGRSLRLSCAASGFSFSTYGMHWVRQAPGKGLEWVALIWHDGSKKFYSESVRGRFTISRDNSMDTLYLQMSSLRAEDTAVYYCARDGADYFDSTGGAFDIWGQGTMVIVSS
VL: EIVMTQSPATLSVSPGERATLSCRASQSVSSNLAWYQQKPGQAPRLLIYGASTRATGIPARFSGSGSGTEFTLTISSLQSEDFATYYCQQYKTWWTFGQGTKVEIK
notes: also called mAb 337; source: ExpiCHO cells, purified (mAb Select PrismA or Capture Select, SEC)
B2: 337 Fab (Fab, V domains shown)
VH: QVQLVESGGGVVQPGRSLRLSCAASGFSFSTYGMHWVRQAPGKGLEWVALIWHDGSKKFYSESVRGRFTISRDNSMDTLYLQMSSLRAEDTAVYYCARDGADYFDSTGGAFDIWGQGTMVIVSS
VL: EIVMTQSPATLSVSPGERATLSCRASQSVSSNLAWYQQKPGQAPRLLIYGASTRATGIPARFSGSGSGTEFTLTISSLQSEDFATYYCQQYKTWWTFGQGTKVEIK
notes: source: ExpiCHO cells, purified (mAb Select PrismA or Capture Select, SEC)
B3: 227 Fab (Fab, V domains shown)
VH: QVQLVQSGGGVVQPGRSLRLSCVTSGFTFPAFGMHWVRQAPGKGLEWVAVIWYDGSKKYYADSVRGRFTISRDNSRNTLYLQMHSLRAEDTAVYYCARVKNYESSGYSQCLDYWGQGVLVTVAS
VL: QSVLTQPPSVSGAPGQRVTISCTGSSSNIGAGYDVHWYQQLPGTAPKLLIYGNGNRPSGVPDRFSGSKSGTSVSLAITGLQAEDEADYYCQSYDSSLSAFVFGTGTKVTVL
notes: also called mAb 227; source: ExpiCHO cells, purified (mAb Select PrismA or Capture Select, SEC)
B4: 227 Fab (Fab, V domains shown)
VH: QVQLVQSGGGVVQPGRSLRLSCVTSGFTFPAFGMHWVRQAPGKGLEWVAVIWYDGSKKYYADSVRGRFTISRDNSRNTLYLQMHSLRAEDTAVYYCARVKNYESSGYSQCLDYWGQGVLVTVAS
VL: QSVLTQPPSVSGAPGQRVTISCTGSSSNIGAGYDVHWYQQLPGTAPKLLIYGNGNRPSGVPDRFSGSKSGTSVSLAITGLQAEDEADYYCQSYDSSLSAFVFGTGTKVTVL
notes: as for B2
B5: 334 Fab (Fab, V domains shown)
VH: QVQLVESGGGVVQPGRSLTLSCAASGFTFSNYGMHWVRQTPGKGLAWVAIIWYDGSKTYYEDSVKGRFTISRDNSKNTLYLQMNSLRVDDTAVYYCARVRHSSSRHGSAFDLWGQGTLVTVSS
VL: VIQMTQSPSTLSASVGDRVTITCRASQSVSTWLAWYQQKPGQGPKLLIYEASSLESGVPSRFSGSGSGTEFTLTISSLQPDDFATYYCQQYNSYSFWTFGQGTKVEIK
notes: also called mAb 334; source: ExpiCHO cells, purified (mAb Select PrismA or Capture Select, SEC)
B6: 334 Fab (Fab, V domains shown)
VH: QVQLVESGGGVVQPGRSLTLSCAASGFTFSNYGMHWVRQTPGKGLAWVAIIWYDGSKTYYEDSVKGRFTISRDNSKNTLYLQMNSLRVDDTAVYYCARVRHSSSRHGSAFDLWGQGTLVTVSS
VL: VIQMTQSPSTLSASVGDRVTITCRASQSVSTWLAWYQQKPGQGPKLLIYEASSLESGVPSRFSGSGSGTEFTLTISSLQPDDFATYYCQQYNSYSFWTFGQGTKVEIK
notes: as for B2
B7: 364 Fab (Fab, V domains shown)
VH: QVQLVESGGGVVQPGGSLRLSCAASGFTFSGYGMHWVRQVPGKGLEWVAIIWFDGSQKYYADSVQGRFTISRDNSKKTLFLRMNSLRAEDTAVYYCAKVHDDEPTQDYWGQGTLVTVSS
VL: DIQMTQSPSTLSASVGDRVTITCRASQGISTSLAWYQQKPGKAPKLLIYKASSLESGVPSRFSGSGSGTEFTLTITSLQPEDFATYYCQQYKRYWTFGQGTKVEIK
notes: also called mAb 364; source: ExpiCHO cells, purified (mAb Select PrismA or Capture Select, SEC)
B8: 364 Fab (Fab, V domains shown)
VH: QVQLVESGGGVVQPGGSLRLSCAASGFTFSGYGMHWVRQVPGKGLEWVAIIWFDGSQKYYADSVQGRFTISRDNSKKTLFLRMNSLRAEDTAVYYCAKVHDDEPTQDYWGQGTLVTVSS
VL: DIQMTQSPSTLSASVGDRVTITCRASQGISTSLAWYQQKPGKAPKLLIYKASSLESGVPSRFSGSGSGTEFTLTITSLQPEDFATYYCQQYKRYWTFGQGTKVEIK
notes: as for B2
B9: 311 Fab (Fab, V domains shown)
VH: QVQLVESGGGVVPPGRSLRLSCATSGFTFSNYGMHWVRQAPGKGLEWVAIIWYDGSRNFYAASVEGRFTISRDNSKNTLYLQMNSLRVEDTAVYYCARAAYYDTSGYGDYWGQGTLVTVSS
VL: QSVLTQPPSVSGAPGQTVTISCTGGSSNIGAGYDVHWYQQLPGTAPKLLIYGNINRPSGVPDRFSGSKSGTSASLAITGLQAEDEADYYCQSYDRRLSGSWVFGGGTKLTVL
notes: also called mAb 311; source: ExpiCHO cells, purified (mAb Select PrismA or Capture Select, SEC)
B10: 311 Fab (Fab, V domains shown)
VH: QVQLVESGGGVVPPGRSLRLSCATSGFTFSNYGMHWVRQAPGKGLEWVAIIWYDGSRNFYAASVEGRFTISRDNSKNTLYLQMNSLRVEDTAVYYCARAAYYDTSGYGDYWGQGTLVTVSS
VL: QSVLTQPPSVSGAPGQTVTISCTGGSSNIGAGYDVHWYQQLPGTAPKLLIYGNINRPSGVPDRFSGSKSGTSASLAITGLQAEDEADYYCQSYDRRLSGSWVFGGGTKLTVL
notes: as for B2
B11: 311R Fab (Fab, V domains shown)
VH: QVQLVESGGGVVPPGRSLRLSCATSGFTFSSYGMHWVRQAPGKGLEWVAIIWYDGSNKFYAASVKGRFTISRDNSKNTLYLQMNSLRVEDTAVYYCARAAYYDTSGYGDYWGQGTLVTVSS
VL: QSVLTQPPSVSGAPGQTVTISCTGGSSNIGAGYDVHWYQQLPGTAPKLLIYGNINRPSGVPDRFSGSKSGTSASLAITGLQAEDEADYYCQSYDSSLSGSWVFGGGTKLTVL
notes: also called germline-reverted 311; source: ExpiCHO cells, purified (mAb Select PrismA or Capture Select, SEC)
B12: 239 Fab (Fab, V domains shown)
VH: QVQLVESGGGVVQPGRSLRLSCAASRLTFRNFGMHWVRQTPGKGLEWVAVIWHDGSNKFYADSVEGRFTISRDNSKNTLYLQMNSLRDEDTAIYYCAKDWGGASDRVFDYWGRGTLVIVSS
VL: DIQMTQSPSTLSASVGDRVTITCRASQSVSTSLAWYQQKPGKAPNLLIYQASTLYRGVPSRFSGSGSGTEFTLTIGSLQPDDFATYYCQHYNSYSRITFGQGTRLEIK
notes: also called mAb 239; source: ExpiCHO cells, purified (mAb Select PrismA or Capture Select, SEC)
B13: 239R Fab (Fab, V domains shown)
VH: QVQLVESGGGVVQPGRSLRLSCAASRLTFSSYGMHWVRQTPGKGLEWVAVIWHDGSNKFYADSVKGRFTISRDNSKNTLYLQMNSLRDEDTAIYYCAKDWGGASDRVFDYWGRGTLVIVSS
VL: DIQMTQSPSTLSASVGDRVTITCRASQSVSTSLAWYQQKPGKAPNLLIYQASTLYTGVPSRFSGSGSGTEFTLTIGSLQPDDFATYYCQHYNSYSRITFGQGTRLEIK
notes: also called germline-reverted 239; source: ExpiCHO cells, purified (mAb Select PrismA or Capture Select, SEC)
B14: 239 Fab (Fab, V domains shown)
VH: QVQLVESGGGVVQPGRSLRLSCAASRLTFRNFGMHWVRQTPGKGLEWVAVIWHDGSNKFYADSVEGRFTISRDNSKNTLYLQMNSLRDEDTAIYYCAKDWGGASDRVFDYWGRGTLVIVSS
VL: DIQMTQSPSTLSASVGDRVTITCRASQSVSTSLAWYQQKPGKAPNLLIYQASTLYRGVPSRFSGSGSGTEFTLTIGSLQPDDFATYYCQHYNSYSRITFGQGTRLEIK
notes: as for B2
B15: 356 Fab (Fab, V domains shown)
VH: QVQLVESGGGVVQPGRSLRLSCAASGFTFRNFGMHWVRQTPGKGLEWVAVIWHDGSNKFYADSVEGRFTISRDNSKNMIYLQMNSLRVEDTAIYYCARDSLFYDHDNSGYYGYWGQGTLVTVSS
VL: QIVMTQSPATVSVSPGERATLSCRASRSVTSKLAWYQQKPGQAPRLLIYGASTRATGIPARFSGSGSGTEFTLTISSLQSEDFAVYFCQQYNNGFTFGPGTKVDFK
notes: also called mAb 356; source: ExpiCHO cells, purified (mAb Select PrismA or Capture Select, SEC)
B16: 356R Fab (Fab, V domains shown)
VH: QVQLVESGGGVVQPGRSLRLSCAASGFTFSSYGMHWVRQTPGKGLEWVAVIWHDGSNKFYADSVKGRFTISRDNSKNMIYLQMNSLRVEDTAIYYCARDSLFYDHDNSGYYGYWGQGTLVTVSS
VL: EIVMTQSPATVSVSPGERATLSCRASQSVTSKLAWYQQKPGQAPRLLIYGASTRATGIPARFSGSGSGTEFTLTISSLQSEDFAVYFCQQYNNGFTFGPGTKVDFK
notes: also called germline-reverted 356; source: ExpiCHO cells, purified (mAb Select PrismA or Capture Select, SEC)
B17: 356 Fab (Fab, V domains shown)
VH: QVQLVESGGGVVQPGRSLRLSCAASGFTFRNFGMHWVRQTPGKGLEWVAVIWHDGSNKFYADSVEGRFTISRDNSKNMIYLQMNSLRVEDTAIYYCARDSLFYDHDNSGYYGYWGQGTLVTVSS
VL: QIVMTQSPATVSVSPGERATLSCRASRSVTSKLAWYQQKPGQAPRLLIYGASTRATGIPARFSGSGSGTEFTLTISSLQSEDFAVYFCQQYNNGFTFGPGTKVDFK
notes: as for B2
B18: 356R Fab (Fab, V domains shown)
VH: QVQLVESGGGVVQPGRSLRLSCAASGFTFSSYGMHWVRQTPGKGLEWVAVIWHDGSNKFYADSVKGRFTISRDNSKNMIYLQMNSLRVEDTAIYYCARDSLFYDHDNSGYYGYWGQGTLVTVSS
VL: EIVMTQSPATVSVSPGERATLSCRASQSVTSKLAWYQQKPGQAPRLLIYGASTRATGIPARFSGSGSGTEFTLTISSLQSEDFAVYFCQQYNNGFTFGPGTKVDFK
notes: also called Fab356R; germline-reverted 356; source: ExpiCHO cells, purified (mAb Select PrismA or Capture Select, SEC)

Tests used:
Experiment in all cases: BLI
Settings in all cases: both partners purified
NPNA4 peptide [1] = biological target: T1, NPNA4 peptide
NPNA8 peptide [2] = biological target: T2, NPNA8 peptide
NPNA4 peptide [3] = biological target: T3, NPNA4 peptide
NPNA8 peptide [4] = biological target: T4, NPNA8 peptide

Binder	Kd (NPNA4 peptide [1]) [nM]	koff (NPNA4 peptide [1]) [s⁻¹]	kon (NPNA4 peptide [1]) [M⁻¹ s⁻¹]	Kd (NPNA8 peptide [2]) [nM]	koff (NPNA8 peptide [2]) [s⁻¹]	kon (NPNA8 peptide [2]) [M⁻¹ s⁻¹]	Kd (NPNA4 peptide [3]) [nM]	Kd (NPNA8 peptide [4]) [nM]
B1	36.9	0.007	130000	39.4	0.0035	66000	–	–
B2	–	–	–	–	–	–	36.9	39.4
B3	37.5	0.0058	130000	80.3	0.0035	40000	–	–
B4	–	–	–	–	–	–	46.3	23.7
B5	49.9	0.0021	53000	22.4	0.0013	52000	–	–
B6	–	–	–	–	–	–	49.9	22.4
B7	260	0.0027	43000	4.9	0.00027	65000	–	–
B8	–	–	–	–	–	–	260	4.88
B9	212	0.0041	27000	6.1	0.00025	66000	–	–
B10	–	–	–	–	–	–	212	6.11
B11	67.4	0.0088	71000	211	0.0051	71000	–	–
B12	44.7	0.0063	110000	7.2	0.00056	83000	–	–
B13	165	0.033	410000	205	0.022	120000	–	–
B14	–	–	–	–	–	–	44.7	7.22
B15	123	0.013	80000	6.4	0.00056	87000	–	–
B16	79	0.03	560000	124	0.017	79000	–	–
B17	–	–	–	–	–	–	123	6.35
B18	–	–	–	–	–	–	65	124
